Measurements from article PMC4040697 (Cell Death & Disease, 2014).

Tests used:
[1] = target: T1, glutathione transferase P1-1 (GSTP1-1), native (UniProt P09211 1-210); assay: ELISA
[2] = target: T1, glutathione transferase P1-1 (GSTP1-1), …; assay: ELISA; remark: listed apart in the source
[3] = target: T1, glutathione transferase P1-1 (GSTP1-1), …; assay: ELISA; remark: listed apart in the source
[4] = target: T1, glutathione transferase P1-1 (GSTP1-1), …; assay: ELISA; remark: listed apart in the source
[5] = target: 'Oxidized' GSTP1-1 (oxidatively inactivated) (UniProt P09211 1-210, one intra-chain disulfide bond between cysteine 47 and 101); assay: ELISA
[6] = target: T1, glutathione transferase P1-1 (GSTP1-1), …; assay: ELISA; remark: listed apart in the source
[7] = target: T1, glutathione transferase P1-1 (GSTP1-1), …; assay: ELISA; remark: listed apart in the source
[8] = target: T1, glutathione transferase P1-1 (GSTP1-1), …; assay: ELISA; remark: listed apart in the source
[9] = target: T1, glutathione transferase P1-1 (GSTP1-1), …; assay: other fluorescence titration
[10] = target: T1, glutathione transferase P1-1 (GSTP1-1), …; assay: other fluorescence titration; remark: listed apart in the source

T1 sequence (P09211 whole entry): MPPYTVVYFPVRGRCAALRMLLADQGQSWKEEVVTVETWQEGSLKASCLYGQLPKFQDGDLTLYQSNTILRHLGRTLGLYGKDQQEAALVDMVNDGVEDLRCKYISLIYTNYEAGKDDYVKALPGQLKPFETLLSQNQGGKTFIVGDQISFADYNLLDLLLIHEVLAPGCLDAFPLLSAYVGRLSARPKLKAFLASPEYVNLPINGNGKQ
Chain of 'Oxidized' GSTP1-1 (oxidatively inactivated) (P09211 whole entry): as above

Row | Kd [1] | Kd [2] | Kd [3] | Kd [4] | Kd [5] | Kd [6] | Kd [7] | Kd [8] | Kd [9] | Kd [10] | Binder
1 | 490 nM | ≥ 5000 nM | 2600 nM | 290 nM | 1700 nM | 930 nM | 1200 nM | 2700 nM |  |  | His-tagged C-terminal domain of TRAF2 (residues 310–501) (domain or fragment, human, UniProt Q12933 310-501, looked up) DQDKIEALSSKVQQLERSIGLKDLAMADLEQKVLEMEASTYDGVFIWKISDFARKRQEAVAGRIPAIFSPAFYTSRYGYKMCLRIYLNGDGTGRGTHLSLFFVVMKGPNDALLRWPFNQKVTLMLLDQNNREHVIDAFRPDVTSSSFQRPVNDMNIASGCPLFCPVSKMEAKNSYVRDDAIFIKAIVDLTGL
2 |  |  |  |  |  |  |  |  | 4600 nM | 300 nM | Dansylated TRAF2 (C-terminal domain, residues 310–501) (domain or fragment, human, UniProt Q12933 310-501, looked up, dansyl, mole ratio of dansyl/TRAF2 2 : 1; labelled residues not stated) DQDKIEALSSKVQQLERSIGLKDLAMADLEQKVLEMEASTYDGVFIWKISDFARKRQEAVAGRIPAIFSPAFYTSRYGYKMCLRIYLNGDGTGRGTHLSLFFVVMKGPNDALLRWPFNQKVTLMLLDQNNREHVIDAFRPDVTSSSFQRPVNDMNIASGCPLFCPVSKMEAKNSYVRDDAIFIKAIVDLTGL
